# Reference: patent US6808893 (Johns Hopkins, dated 2004)
# T1: EAAT4, full-length glutamate transporter (rat, UniProt O35921 1-561)
# T1 sequence (looked up): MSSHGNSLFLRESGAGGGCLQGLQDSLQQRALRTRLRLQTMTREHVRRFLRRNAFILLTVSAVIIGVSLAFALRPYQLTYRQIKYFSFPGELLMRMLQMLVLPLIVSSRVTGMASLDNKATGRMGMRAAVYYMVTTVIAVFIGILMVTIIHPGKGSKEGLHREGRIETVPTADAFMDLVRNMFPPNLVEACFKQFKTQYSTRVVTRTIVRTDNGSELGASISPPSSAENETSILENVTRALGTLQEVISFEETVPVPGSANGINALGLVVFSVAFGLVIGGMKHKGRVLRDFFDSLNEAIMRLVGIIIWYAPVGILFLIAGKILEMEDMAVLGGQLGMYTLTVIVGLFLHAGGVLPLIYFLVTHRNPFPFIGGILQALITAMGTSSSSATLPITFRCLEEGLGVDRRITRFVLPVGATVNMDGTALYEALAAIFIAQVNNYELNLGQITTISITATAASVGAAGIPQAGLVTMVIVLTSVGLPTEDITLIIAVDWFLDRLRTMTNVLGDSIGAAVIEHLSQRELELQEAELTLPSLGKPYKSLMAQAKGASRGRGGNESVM
# B1: GTRAP4-48 (glutamate transporter 4 associated protein), full-length (other)
# chain: MSIRLPHSIDRSASKKQSHLSSPIASWLSSLSSLGDSTPERTSPSHHRQPSDTSETTAGLVQRCVIIQKDQHGFGFTVSGDRIVLVQSVRPGGAAMKAGVKEGDRIIKVNGTMVTNSSHLEVVKLIKSGAYAALTLLGSSPPSVGVSGLQQNPSVAGVLRVNPIIPPPPPPPPLPPPQHITGPKPLQDPEVQKHATQILWNMLRQEEEELQDILPPCGETSQRTCEGRLSVDSQEADSGLDSGTERFPSISESLMNRNSVLSDPGLDSPQTSPVILARVAQHHRRQGSDAALLPLNHQGIDQSPKPLIIGPEEDYDPGYFNNESDIIFQDLEKLKSHPAYLVVFLRYILSQADPGPLLFYLCSEVYQQTNPKDSRSLGKDIWNIFLEKNAPLRVKIPEMLQAEIDLRLRNNEDPRNVLCEAQEAVMLEIQEQINDYRSKRTLGLGSLYGENDLLGLDGDPLRERQMAEKQLAALGDILSKYEEDRSAPMDFAVNTFMSHAGIRLRESRSSCTAEKTQSAPDKDKWLPFFPKTKKQSSNSKKEKDALEDKKRNPILRYIGKPKSSSQSIKPGNVRNIIQHFENSHQYDVPEPGTQRLSTGSFPEDLLESDSSRSEIRLGRSGSLKGREEMKRSRKAENVPRPRSDVDMDAAAEAARLHQSASSSASSLSTRSLENPTPPFTPKMGRRSIESPNLGFCTDVILPHLLEDDLGQLSDLEPEPEVQNWQHTVGKDVVANLTQREIDRQEVINELFVTEASHLRTLRVLDLIFYQRMRKENLMPREELARLFPNLPELIEIHNSWCEAMKKLREEGPIIRDISDPMLARFDGPAREELQQVAAQFCSYQSVALELIRTKQRKESRFQLFMQEAESHPQCRRLQLRDLIVSEMQRLTKYPLLLENIIKHTEGGTSEHEKLCRARDQCREILKFVNEAVKQTENRHRLEGYQKRLDATALERASNPLAAEFKSLDLTTRKMIHEGPLTWRISKDKTLDLQVLLLEDLVVLLQRQEERLLLKCHSKTAVGSSDSKQTFSPVLKLNAVLIRSVATDKRAFFIICTSELGPPQIYELVALTSSDKNIWMELLEEAVQNATKHPGAAPIPIHPSPPGSQEPAYQGSTSSRVEINDSEVYHTEKEPKKLPEGPGPEQRVQDKQLIAQGEPVQEEDEEELRTLPRAPPSLDGENRGIRTRDPVLLALTGPLLMEGLADAALEDVENLRHLILWSLLPGHTVKTQAAGEPEDDLTPTPSVVSITSHPWDPGSPGQAPTISDSTRLARPEGSQPEGEDVAVSSLAHLPPRTRSSGVWDSPELDRNPAAEAASTEPAASYKVVRKVSLLPGGGVGAAKVAGSNAIPDSGQSESELSEVEGGAQATGNCFYVSMPAGPLDSSTEPTGTPPSPSQCHSLPAWPTEPQPYRGVRGGQCSSLVRRDVDVIFHTIEQLTIKLHRLKDMELAHRELLKSLGGESSGGTTPVGSFHTEAARWTDYSLSPPAKEALASDSQNGQEQGSCPEEGSDIALEDSATDTAVSPGP
# notes: also called GTRAP48
# B2: GLAST glutamate transporter (other, rat, UniProt P24942 1-543, looked up)
# chain: MTKSNGEEPRMGSRMERFQQGVRKRTLLAKKKVQNITKEDVKSYLFRNAFVLLTVSAVIVGTILGFALRPYKMSYREVKYFSFPGELLMRMLQMLVLPLIISSLVTGMAALDSKASGKMGMRAVVYYMTTTIIAVVIGIIIVIIIHPGKGTKENMYREGKIVQVTAADAFLDLIRNMFPPNLVEACFKQFKTSYEKRSFKVPIQANETLLGAVINNVSEAMETLTRIREEMVPVPGSVNGVNALGLVVFSMCFGFVIGNMKEQGQALREFFDSLNEAIMRLVAVIMWYAPLGILFLIAGKILEMEDMGVIGGQLAMYTVTVIVGLLIHAVIVLPLLYFLVTRKNPWVFIGGLLQALITALGTSSSSATLPITFKCLEENNGVDKRITRFVLPVGATINMDGTALYEALAAIFIAQVNNFDLNFGQIITISITATAASIGAAGIPQAGLVTMVIVLTSVGLPTDDITLIIAVDWFLDRLRTTTNVLGDSLGAGIVEHLSRHELKNRDVEMGNSVIEENEMKKPYQLIAQDNEPEKPVADSETKM
# notes: whole, on cells; Native protein in solubilized rat brain
# B3: GST-EAAT4 fusion protein (full-length EAAT4 in pGEX-6P-1) (other, UniProt O35921 1-561, looked up)
# chain: T1 sequence (looked up)
# notes: mature; Made in BL21 cells, immobilized on glutathione-Sepharose-4B; not shown: glutathione S-transferase of vector pGEX-6P-1 (Pharmacia)
# B4: GLT-1 glutamate transporter (other, rat, UniProt P31596 1-573, looked up)
# chain: MASTEGANNMPKQVEVRMHDSHLSSEEPKHRNLGMRMCDKLGKNLLLSLTVFGVILGAVCGGLLRLAAPIHPDVVMLIAFPGDILMRMLKMLILPLIISSLITGLSGLDAKASGRLGTRAMVYYMSTTIIAAVLGVILVLAIHPGNPKLKKQLGPGKKNDEVSSLDAFLDLIRNLFPENLVQACFQQIQTVTKKVLVAPPSEEANTTKAVISLLNETMNEAPEETKIVIKKGLEFKDGMNVLGLIGFFIAFGIAMGKMGEQAKLMVEFFNILNEIVMKLVIMIMWYSPLGIACLICGKIIAIKDLEVVARQLGMYMITVIVGLIIHGGIFLPLIYFVVTRKNPFSFFAGIFQAWITALGTASSAGTLPVTFRCLEDNLGIDKRVTRFVLPVGATINMDGTALYEAVAAIFIAQMNGVILDGGQIVTVSLTATLASIGAASIPSAGLVTMLLILTAVGLPTEDISLLVAVDWLLDRMRTSVNVVGDSFGAGIVYHLSKSELDTIDSQHRMHEDIEMTKTQSVYDDTKNHRESNSNQCVYAAHNSVVIDECKVTLAANGKSADCSVEEEPWKREK
# notes: as for B2
# B5: EAAC1, full-length glutamate transporter (other, rat, UniProt P51907 1-523, looked up)
# chain: MGKPTSSGCDWRRFLRNHWLLLSTVAAVVLGIVVGVLVRGHSELSNLDKFYFAFPGEILMRMLKLVILPLIISSMITGVAALDSNVSGKIGLRAVVYYFSTTVIAVILGIVLVVSIKPGVTQKVNEINRTGKTPEVSTVDAMLDLIRNMFPENLVQACFQQYKTKREEVKPASDPGGNQTEVSVTTAMTTMSENKTKEYKIVGLYSDGINVLGLIIFCLVFGLVIGKMGEKGQILVDFFNALSDATMKIVQIIMCYMPIGILFLIAGKIIEVEDWEIFRKLGLYMATVLSGLAIHSLVVLPLIYFIVVRKNPFRFALGMAQALLTALMISSSSATLPVTFRCAEEKNHVDKRITRFVLPVGATINMDGTALYEAVAAVFIAQLNGMDLSIGQIITISITATAASIGAAGVPQAGLVTMVIVLSAVGLPAEDVTLIIAVDWLLDRFRTMVNVLGDAFGTGIVEKLSKKELEQVDVSSEVNIVNPFALEPTILDNEDSDTKKSYVNGGFSVDKSDTISFTQTSQF
# notes: whole, on cells; Used for native EAAC1 of rat brain and for EAAC1 expressed in HEK293, COS-7 and C6 glioma cells
# Experiments:
# [1] = molecular target: T2, GTRAP4-41 (glutamate transporter 4 associated protein), full-length (rat, UniProt Q9QWN8 2-2388); test: co-immunoprecipitation from solubilized rat brain
# T2 construct: Used for native GTRAP4-41 of rat brain and for full-length GTRAP4-41 expressed where no tag is stated (transfected HEK cells, HSV amplicon); also called GTRAP41
# T2 sequence (Q9QWN8 other isoform, or with tags, fused parts or gaps limits assumed): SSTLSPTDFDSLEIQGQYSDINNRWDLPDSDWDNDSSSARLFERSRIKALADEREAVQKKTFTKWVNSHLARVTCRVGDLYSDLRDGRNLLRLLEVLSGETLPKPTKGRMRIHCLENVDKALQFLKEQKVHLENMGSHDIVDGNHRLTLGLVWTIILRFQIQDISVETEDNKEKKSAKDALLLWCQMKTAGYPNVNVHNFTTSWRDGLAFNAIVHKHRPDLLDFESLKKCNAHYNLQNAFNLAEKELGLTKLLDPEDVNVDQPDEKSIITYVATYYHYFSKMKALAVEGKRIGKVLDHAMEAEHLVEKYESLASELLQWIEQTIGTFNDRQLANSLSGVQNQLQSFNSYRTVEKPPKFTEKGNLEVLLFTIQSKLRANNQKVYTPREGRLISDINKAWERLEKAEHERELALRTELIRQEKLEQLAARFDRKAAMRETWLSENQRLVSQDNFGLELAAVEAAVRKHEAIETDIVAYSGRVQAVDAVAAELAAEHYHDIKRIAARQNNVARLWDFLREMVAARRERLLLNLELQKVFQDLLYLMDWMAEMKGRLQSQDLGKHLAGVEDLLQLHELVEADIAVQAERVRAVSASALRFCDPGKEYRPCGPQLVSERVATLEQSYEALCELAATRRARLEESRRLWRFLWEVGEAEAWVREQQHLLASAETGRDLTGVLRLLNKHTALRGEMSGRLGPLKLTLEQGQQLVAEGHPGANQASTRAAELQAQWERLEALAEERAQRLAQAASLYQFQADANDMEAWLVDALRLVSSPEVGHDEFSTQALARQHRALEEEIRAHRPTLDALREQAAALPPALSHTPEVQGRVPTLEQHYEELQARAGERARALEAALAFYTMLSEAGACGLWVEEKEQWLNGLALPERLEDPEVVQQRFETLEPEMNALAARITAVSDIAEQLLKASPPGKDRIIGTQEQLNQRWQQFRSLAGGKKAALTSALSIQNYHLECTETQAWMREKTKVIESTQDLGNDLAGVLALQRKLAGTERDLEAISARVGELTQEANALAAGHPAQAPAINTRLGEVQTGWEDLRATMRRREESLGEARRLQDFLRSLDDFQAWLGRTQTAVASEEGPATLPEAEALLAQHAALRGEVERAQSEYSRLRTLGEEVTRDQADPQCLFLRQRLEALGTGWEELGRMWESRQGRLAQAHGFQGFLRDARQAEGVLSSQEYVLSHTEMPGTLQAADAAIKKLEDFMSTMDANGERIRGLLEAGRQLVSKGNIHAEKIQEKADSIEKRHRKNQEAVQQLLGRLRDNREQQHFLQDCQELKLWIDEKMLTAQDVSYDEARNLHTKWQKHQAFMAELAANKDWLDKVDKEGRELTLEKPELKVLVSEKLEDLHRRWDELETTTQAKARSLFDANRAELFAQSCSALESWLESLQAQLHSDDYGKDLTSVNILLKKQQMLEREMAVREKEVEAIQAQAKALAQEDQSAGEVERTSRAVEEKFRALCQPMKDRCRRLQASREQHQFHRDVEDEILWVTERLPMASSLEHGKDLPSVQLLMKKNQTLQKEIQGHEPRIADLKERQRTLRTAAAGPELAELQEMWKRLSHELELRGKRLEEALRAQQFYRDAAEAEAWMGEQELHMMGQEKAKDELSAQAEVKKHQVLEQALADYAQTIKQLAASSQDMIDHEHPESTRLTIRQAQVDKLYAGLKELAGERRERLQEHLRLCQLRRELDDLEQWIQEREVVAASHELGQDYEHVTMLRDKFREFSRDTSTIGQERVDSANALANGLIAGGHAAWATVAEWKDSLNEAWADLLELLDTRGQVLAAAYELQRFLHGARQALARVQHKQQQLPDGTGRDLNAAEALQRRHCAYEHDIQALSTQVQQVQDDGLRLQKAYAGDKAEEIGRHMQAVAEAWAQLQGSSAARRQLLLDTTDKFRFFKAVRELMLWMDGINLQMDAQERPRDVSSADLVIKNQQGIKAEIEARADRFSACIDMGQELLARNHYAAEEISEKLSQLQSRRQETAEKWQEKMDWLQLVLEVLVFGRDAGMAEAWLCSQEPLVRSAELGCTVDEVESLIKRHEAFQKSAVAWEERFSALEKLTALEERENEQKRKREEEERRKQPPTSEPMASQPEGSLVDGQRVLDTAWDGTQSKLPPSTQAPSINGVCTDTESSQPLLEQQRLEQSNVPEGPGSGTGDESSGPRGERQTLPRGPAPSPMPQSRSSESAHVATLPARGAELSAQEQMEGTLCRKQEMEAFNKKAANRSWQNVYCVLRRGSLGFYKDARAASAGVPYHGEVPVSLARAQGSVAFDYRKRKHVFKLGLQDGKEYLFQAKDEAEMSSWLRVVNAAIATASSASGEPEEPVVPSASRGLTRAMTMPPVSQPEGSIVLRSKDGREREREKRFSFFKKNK
# Experimental: (§1) Immunoprecipitation from cerebellum lysate. Sprague-Dawley (SD) rat cerebellum was dissected, washed with 50 mM Tris-HCl (pH 7.5), 2 mM EDTA and 0.5 mM DTT, and homogenized on ice in buffer containing 20 mM Tris-HCl (pH 7.5), 10% sucrose, 1 mM EDTA, 0.1 mM PMSF, 0.3 mM aprotinin, 1 mM benamidine, 10 mg/ml leupeptine and 10 mg/ml pepstatine. Protein concentration was measured and adjusted to 2–3 mg/ml, and the homogenate was mixed in a 1:1 ratio with the solubilization buffer (homogenization buffer plus 2% Triton X-100). After 2 h, the lysate was spun at 10,000 g for 10 min. For each immunoprecipitation, […] of the Triton-lysate was incubated overnight at 4° C. with 5 μg of the anti-amino-terminal EAAT4 antibody. Immune complexes were precipitated with protein A Sepharose (Pharmacia), washed three times with 10 mM Tris-HCl (pH 7.5) and 5 mM EDTA, eluted with 3×SDS loading buffer, and processed for western blot analysis. The filters were probed with affinity purified rabbit antibodies against GTRAP4-41 and GTRAP4-48.
# (§2) The GTRAP4-41 and GTRAP4-48 interaction with EAAT4 was then studied in vivo using solubilized brain preparations. GTRAP4-41 and GTRAP4-48 are co-immunoprecipitated with EAAT4 from brain by antibodies directed at the amino-terminus of EAAT4 but not by antibodies directed at the carboxy-terminus. However, since the site of interaction is within the carboxy-terminus of EAAT4, it is likely that the carboxy-terminal antibodies disrupt the protein-protein interaction. […] GTRAP4-48 is also not co-immunoprecipitated from brain with antibodies directed at GTRAP4-41.
# [2] = molecular target: T1, EAAT4, full-length glutamate transporter; test: cell-based or functional assay
# [3] = molecular target: B1; test: co-immunoprecipitation from solubilized rat brain
# Experimental: as §1, §2
# [4] = molecular target: T3, myc-tagged full-length GTRAP4-41 (rat, UniProt Q9QWN8 2-2388); test: in vitro binding assay, bead-linked GST-EAAT4 with solubilized HEK 293T extract
# T3 construct: tested from solubilized cell extract; also called myc-tagged GTRAP4-41; not shown: myc tag of the myc-tagged pRK5 vector
# T3 sequence (Q9QWN8 other isoform, or with tags, fused parts or gaps): as the sequence (Q9QWN8 other isoform, or with tags, fused parts or gaps limits assumed) above
# Experimental: (§3) GTRAP4-41 and 4-48 Immunoprecipitation with Fusion Proteins. Full-length EAAT4 was subcloned into the EcoR I site of the GST-fusion vector pGEX-6P-1 (Pharmacia). Synthesis of recombinant proteins in BL21 cells (Novagen) was induced by 0.1 mM isopropyl b-D-thiogalactoside for 2 hrs at 30° C. and prepared as a crude bacterial lysate by mild sonication in ice-cold 1 C PBS and solubilization in 1% Triton X-100. Cell debris was removed by centrifugation at 7,000 g and the cleared bacterial lysate applied to glutathione-Sepharose-4B (Pharmacia). […] The cellular lysate was incubated with GST or GST-EAAT4 immobilized on glutathione-Sepharose-4B, and washed to remove non-specifically bound proteins. Specifically bound proteins were eluted with 3×SDS loading buffer and analyzed by immunoblotting using an anti-c-myc antibody. Bands were visualized by HRP-conjugated secondary antibodies and ECL chemiluminescence (Amersham).
# (§4) The biochemical interaction between GTRAP4-41 or GTRAP4-48 and EAAT4 was confirmed using an in vitro binding assay. […] The solubilized cell extracts were then mixed with bead-linked GST-EAAT4 or GST alone and the bound proteins were eluted. GTRAP4-41 and GTRAP4-48 were specifically retained by the GST-EAAT4 fusion protein, but not by GST alone.
# [5] = molecular target: T4, myc-tagged full-length GTRAP4-48 (rat, UniProt Q9ES67 1-1527); test: as above
# T4 construct: tested from solubilized cell extract; also called myc-tagged GTRAP4-48; not shown: myc tag of the myc-tagged pRK5 vector
# Experimental: as §3, §4
Binder,binding result [1],Na+-dependent glutamate transport in HEK-rEAAT4 cells [2],binding result [3],binding result [4],binding result [5]
B1,no binding,4 fold,–,–,–
B2,no binding,–,no binding,–,–
B3,–,–,–,binds,binds
B4,no binding,–,no binding,–,–
B5,no binding,–,no binding,–,–
